Results on 72 sequences are retold here after the supplement of paper PMC10567573.

This data set is described as follows: protein stability index of a GFP-peptide fusion (GPS, HEK-293T) (PSI 1-6); higher = more stable.
Where [1] appears, read: treatment: DMSO, c terminus: a fixed tail appended.
The mark [2] stands for this setting: treatment: MLN4924 1 uM, 8 h, c terminus: a fixed tail appended.
The mark [3] stands for this setting: treatment: DMSO, c terminus: native.
The mark [4] stands for this setting: treatment: MLN4924 1 uM, 8 h, c terminus: native.

± gives the standard deviation.
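Note: 24-mer peptide tiles fused after GFP, lentivirally expressed, FACS-sorted into six equal bins by GFP/DsRed ratio, decoded by Illumina sequencing, PSI is the read-weighted mean bin number.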

On to LCSDLEEAPEAELSQAPAEGPDLV [HES6], for which the protein stability index by setting is: under setting [1], 5.61 ± 0.12; under setting [2], 5.57 ± 0.3.
Consider LDDIYYFGGQNAHNQIAIYAHQPR [FUT8], for which the protein stability index under setting [1] worked out at 2.87 ± 0.41 and the protein stability index under setting [2] was 2.92 ± 0.39.
In the case of LDFLPKDVKKEKLSPDIMKDAYVQ [TENT5D], the protein stability index is, setting by setting: under setting [1], 3.96 ± 0.14; under setting [2], 3.78 ± 0.26.
Take LDKELRAMLREKFPEFCSSPSPPV [INTS3]: the protein stability index runs as follows: under setting [1], 3.22 ± 0.31; under setting [2], 3.42 ± 0.31.
On to LDLMKEWIAHSEKLPRKVLQHVSE [SPACA9], for which the protein stability index came out at 3 ± 0.36 under setting [1] and 3.67 ± 0.47 under setting [2].
LDPQPITDEEEGLIWVVGPVLAVV [PTPRD] had a protein stability index under setting [1] of 2.02 ± 0.41 and a protein stability index under setting [2] of 2.42 ± 0.27.
Turning to LDRFLSLEPVKKSRLQLLGATCMF [CCND1], the protein stability index reads like this: under setting [1], 2.42 ± 0.36; under setting [2], 2.39 ± 0.14.
As for LEFLLALYFLFADAMQLNDKWQGL [CMTM3], the protein stability index runs as follows: under setting [1], 2.77 ± 0.45; under setting [2], 2.8 ± 0.93.
As to LEGALHQAKEELARMLREYQELMS [KRT71], the protein stability index reads like this: under setting [1], 2.98 ± 0.3; under setting [2], 3.48 ± 0.46.
For LEKKNEALKERADSLAKEIQYLKD [ATF4], the protein stability index came out at 4.53 ± 0.24 under setting [1] and 4.45 ± 0.056 under setting [2].
On to LEKNHPEEFCEFVKSNTEQMREAF [ZBED1], for which the protein stability index is 4.58 ± 0.13 under setting [1] and 4.63 ± 0.16 under setting [2].
LELPEDEEEKKKMEESKAKFENLC [HSP90AB1] gave a protein stability index under setting [1] of 5.46 ± 0.42 and a protein stability index under setting [2] of 5.3 ± 0.33.
Turning to LEMRRRCTWSIFQSIEYAGQQDQV [PPEF2], the protein stability index under setting [1] came to 1.92 ± 0.52 and the protein stability index under setting [2] was 2.25 ± 0.1.
For the sequence LESRIRDVHELFLQMAVLVEKQAD [STX11], the protein stability index runs as follows: under setting [1], 2.27 ± 0.35; under setting [2], 2.37 ± 0.34.
For LEVPKPGQPSEPEHGPSPGQDTFC [CHIT1], in that order: 5.22 ± 0.17 and 5.23 ± 0.19.
For the sequence LGDMQTAREGAGLVVASGVIYCLG [KLHL12], the protein stability index reads like this: under setting [1], 2.47 ± 0.45; under setting [2], 2.29 ± 0.8.
For LGDSGLGPWQLNVFVCRVSAVLFY [P2RY14], in that order: 3.32 ± 0.17 and 2.84 ± 0.42.
Regarding LGLRQHHCRKCGQAVCGKCSSKRS [WDFY1], the protein stability index runs as follows: under setting [1], 4.28 ± 0.29; under setting [2], 4.26 ± 0.29.
Sequence LGNLVEGLDFHRFYFENLWSRNSK [CAMK2A] had a protein stability index under setting [1] of 2.2 ± 0.47 and a protein stability index under setting [2] of 2.51 ± 0.24.
For LGQILVSVAGWSLFSLNVISLTCV [SLC19A2], in that order: 3.3 ± 0.26 and 3.21 ± 0.47.
LGQIVLLPAEARERSRGRSISRGR [MATN2] had a protein stability index under setting [1] of 3.86 ± 0.45 and a protein stability index under setting [2] of 4.21 ± 0.18.
Consider LGRMFGSGREHNFTRPNEKGEYEV [BTBD10], for which the protein stability index runs as follows: under setting [1], 3.95 ± 0.08; under setting [2], 3.98 ± 0.25.
For LGYQAVPSGSSGSLSTSSSSSPPG [CEBPB], in that order: 4.78 ± 0.12 and 4.85 ± 0.14.
In turn, LHESYCMDTSHQPLLPAPPKTPMD [LYSMD4] showed a protein stability index under setting [1] of 4.65 ± 0.27 and a protein stability index under setting [2] of 4.59 ± 0.11.
As for LHSSILTCTLLLLYSLAPTMGAVV [MFSD9], the protein stability index came out at 3.36 ± 0.4 under setting [1] and 2.94 ± 0.24 under setting [2].
Regarding LHYGLPVVVKLLHPPSHWPLIKAT [CTNNB1], the protein stability index was found to be 2.3 ± 0.45 under setting [1] and 2.46 ± 0.42 under setting [2].
Take LIWSYPAGSLTFPVRPFFYTGHR [TRIM43]: the protein stability index reads like this: under setting [3], 1.97 ± 0.37; under setting [4], 2.15 ± 0.11.
Consider LKATFSGFTKEQQRLGIPKDPRQW [ETS1], for which the protein stability index is, setting by setting: under setting [1], 2.75 ± 0.25; under setting [2], 2.82 ± 0.36.
In the case of LKFDNSYSLWRSKSVYYRVYYTR [ACBD3], the protein stability index is, setting by setting: under setting [3], 2.52 ± 0.6; under setting [4], 2.29 ± 0.71.
For LKKIKEKDKENKFLCVLMSDWFNF [CLK3], the protein stability index was determined as 2.14 ± 0.36 under setting [1] and 2.24 ± 0.24 under setting [2].
LKNPFFRYTGTTPSPPPGSHYTSP [CARM1] returned a protein stability index under setting [1] of 2.9 ± 0.16 and a protein stability index under setting [2] of 3.16 ± 0.25.
Take LKSISAEEILTLFCGAPPVTPIIV [PHTF1]: the protein stability index was determined as 3.16 ± 0.29 under setting [1] and 2.62 ± 0.53 under setting [2].
For LKSLIRLVKHWYQNCKKKLGKLPP [OAS1], the protein stability index was found to be 2.94 ± 0.36 under setting [1] and 3.02 ± 0.25 under setting [2].
LLAEREQEEAIAQFPYVEFTGRDS [TMEM106C]: the protein stability index turned out to be 4.6 ± 0.27 under setting [1] and 4.72 ± 0.13 under setting [2].
For LLAPEAGSHPQQTQKLEEIKENAQ [TOR1AIP2], in that order: 5.44 ± 0.097 and 5.47 ± 0.25.
For LLCVNYFFYGETVTDYFFTLVQRE [CDS2], the protein stability index came out at 2.9 ± 0.36 under setting [1] and 3.2 ± 0.41 under setting [2].
For LLEKNASVNEVDFEGRTPMHVACQ [RIPK4], in that order: 3.83 ± 0.31 and 3.94 ± 0.16.
Consider LLGWGYYLIMLPFRFTYYTILDIF [FAF2], for which the protein stability index is, setting by setting: under setting [1], 4.59 ± 0.36; under setting [2], 4.7 ± 0.17.
As to LLIYTVKIRRFNKAKPEPDILEEE [TMEM192], the protein stability index under setting [1] was found to be 2.31 ± 0.32 and the protein stability index under setting [2] came to 2.29 ± 0.31.
As for LLKFDNSYSLWRSKSVYYRVYYTR [ACBD3], the protein stability index is 2.41 ± 0.55 under setting [1] and 2.49 ± 0.54 under setting [2].
LLLCLKVDNHFNLLTTSPVFPHYI [TRIM43] yielded a protein stability index under setting [1] of 3.03 ± 0.52 and a protein stability index under setting [2] of 3.08 ± 0.64.
In turn, LLMAVVSMFTLPVVYVKHQAQIDQ [RTN1] came in with a protein stability index under setting [1] of 2.99 ± 0.39 and a protein stability index under setting [2] of 3.32 ± 0.43.
For the sequence LLQRELMVPGTRHSAVLRDLRSGT [TNXB], the protein stability index turned out to be 2.43 ± 0.3 under setting [1] and 2.75 ± 0.28 under setting [2].
Consider LLSSSEEECKDRERPMYGRDSAYQ [EMD], for which the protein stability index runs as follows: under setting [1], 4.48 ± 0.23; under setting [2], 4.51 ± 0.46.
For LMDCCLIVYHPYRPLLQYVQDMGQ [CCNC], in that order: 3.26 ± 0.83 and 3.17 ± 0.55.
As to LMKHKSRKRRLFCTMEPEPVQPGM [TRIM35], the protein stability index was found to be 3.51 ± 0.49 under setting [1] and 3.43 ± 0.17 under setting [2].
For LMLGKTSISDLSEHVFDLILELYN [PDS5B], in that order: 2.59 ± 0.33 and 2.44 ± 0.47.
For LNAELEEKMMQEAEKLKAQGEYSR [CCDC89], in that order: 3.61 ± 0.28 and 3.71 ± 0.39.
Consider LNTLTLNVKSEKVYTRHGVPISVT [FLOT1], for which the protein stability index by setting is: under setting [1], 2.51 ± 0.079; under setting [2], 2.61 ± 0.21.
For LNYLRDGSVPLPESTRELGELLGE [KCTD13], in that order: 4.5 ± 0.21 and 4.64 ± 0.24.
As for LPNHKPKGTFKDYVRDRADLNKDK [ETS1], the protein stability index runs as follows: under setting [1], 4.552 ± 0.017; under setting [2], 4.74 ± 0.32.
LPQPLAAHAGAVHNGKIYISGGVH [KLHL14]: the protein stability index is, setting by setting: under setting [1], 3.17 ± 0.24; under setting [2], 3.27 ± 0.3.
LPSNLVQYYDDEKKTWKILTIMPY [KLHL14]: the protein stability index reads like this: under setting [1], 2.42 ± 0.33; under setting [2], 2.3 ± 0.12.
On to LPVLRGFPAKYIYDPWNAPEGIQK [CRY1], for which the protein stability index worked out at 2.39 ± 0.17 under setting [1] and 2.28 ± 0.34 under setting [2].
LQSFEDLASISTYGFRGEALASIS [MLH1]: the protein stability index worked out at 2.78 ± 0.16 under setting [1] and 2.71 ± 0.3 under setting [2].
As for LQSISWDPEDFEDAWKRPDALPGQ [TLE6], the protein stability index came out at 3.98 ± 0.29 under setting [1] and 3.87 ± 0.43 under setting [2].
Turning to LQSLDDTELRLLGRTHSACDALRT [RSAD1], the protein stability index stood at 3.64 ± 0.2 under setting [1] and 3.85 ± 0.18 under setting [2].
For LRAELQGHHAEKLPAGAGAPKAGL [TNFSF13B], in that order: 4.34 ± 0.32 and 4.45 ± 0.35.
For LRALKLVITALKCHKYDRNIQVTG [ZER1], in that order: 3.14 ± 0.42 and 3.16 ± 0.65.
For LRDKIMATTIDNSRVILEIDNARL [KRT15], the protein stability index under setting [1] was found to be 2.59 ± 0.27 and the protein stability index under setting [2] came to 2.66 ± 0.2.
As to LRESIASYLSLTSEDNTSFDRKKK [SLA], the protein stability index stood at 3.9 ± 0.16 under setting [1] and 3.81 ± 0.15 under setting [2].
As to LRGALQQGEAFQRALESELQQLRA [PBXIP1], the protein stability index turned out to be 3.56 ± 0.24 under setting [1] and 3.67 ± 0.23 under setting [2].
Regarding LRGSYNSLHDGSDGLDGISVGSYL [LURAP1L], the protein stability index reads like this: under setting [1], 3.08 ± 0.24; under setting [2], 3.1 ± 0.15.
As for LRVLGSMCQRLRSMQYNGSYFDRG [DFFB], the protein stability index under setting [1] was found to be 2.14 ± 0.29 and the protein stability index under setting [2] came to 2.23 ± 0.17.
For LSFAHANCTLIISYQKPKEVVVAE [DPCD], in that order: 2.69 ± 0.84 and 2.79 ± 0.73.
Take LSFYNVTDRSHIYTFTDTFTEKLW [TRIM39]: the protein stability index was found to be 2.52 ± 0.31 under setting [1] and 2.3 ± 0.32 under setting [2].
As to LSIINFFERLCLTWMFFFMMCVAE [PHTF1], the protein stability index runs as follows: under setting [1], 3.41 ± 1.2; under setting [2], 2.81 ± 0.2.
As for LSKDHQEVETEGPESADTGDKSES [TOR1AIP2], the protein stability index under setting [1] was found to be 5.67 ± 0.18 and the protein stability index under setting [2] worked out at 5.59 ± 0.19.
For LSLEEELSRVKAAALSERGQAEEE [LRRC45], in that order: 5.45 ± 0.2 and 5.37 ± 0.16.
For LSQMGAQSSGKILLCPLCQEEEQA [TRIM15], in that order: 3.85 ± 0.5 and 4.39 ± 0.23.
Consider LSRLSVNSVTAGDYSRPLHISTFI [TSN], for which the protein stability index was determined as 2.42 ± 0.61 under setting [1] and 2.31 ± 0.24 under setting [2].
For LSWYRGRRPRTAFTQNQIEVLENV [HESX1], in that order: 3.03 ± 0.094 and 3 ± 0.28.
